Laboratory results reported in US20230338424A1 (LENTIGEN TECHNOLOGY, published 2023).

T1: recombinant human CD123-Fc (human, UniProt P26951 19-305, limits assumed)
T1 construct: Treated as one molecule; also called CD123-Fc peptide (Novoprotein); recombinant IL3R-alpha Fc-tagged; not shown: Fc tag
T1 sequence (looked up): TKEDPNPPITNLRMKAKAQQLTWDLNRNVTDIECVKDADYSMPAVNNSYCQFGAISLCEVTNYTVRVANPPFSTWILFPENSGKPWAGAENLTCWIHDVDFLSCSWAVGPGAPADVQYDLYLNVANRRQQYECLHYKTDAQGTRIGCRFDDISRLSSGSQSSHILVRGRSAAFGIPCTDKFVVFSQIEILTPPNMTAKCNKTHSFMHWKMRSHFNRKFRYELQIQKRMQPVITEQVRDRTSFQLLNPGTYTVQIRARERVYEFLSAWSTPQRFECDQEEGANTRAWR

T2: recombinant human CD123 (human, UniProt P26951 19-305, limits assumed)
T2 construct: also called coated CD123
T2 sequence (looked up): T1 sequence (looked up)

B1: CAR D0127 CD123 MB35-E02 CD8 BBz (other)
chain: QVQLVQSGAEVKKPGSSVKVSCKASGGTFSSYAISWVRQAPGQGLEWMGGIIPIFGTANYAQKFQGRVTITADESTSTAYMELSSLRSEDTAVYYCARHGGMATMLPYGAFDIWGQGTMVTVSSGGGGSGGGGSGGGGSDIRLTQSPSSLSASVGDRVTITCRASQGISSYLNWYQQKPGKAPKLLIYAASRLQSGVPSRFSGSGSGTDFTLTISSLQPEDFATYYCQQSYSTSLTFGGGTKVEIKAAATTTPAPRPPTPAPTIASQPLSLRPEACRPAAGGAVHTRGLDFACDIYIWAPLAGTCGVLLLSLVITLYCKRGRKKLLYIFKQPFMRPVQTTQEEDGCSCRFPEEEEGGCELRVKFSRSADAPAYQQGQNQLYNELNLGRREEYDVLDKRRGRDPEMGGKPRRKNPQEGLYNELQKDKMAEAYSEIGMKGERRRGKGHDGLYQGLSTATKDTYDALHMQALPPR
notes: Chimeric antigen receptor on transduced human primary T cells; also called EF-1a-CD123 MB35-E02 CD8 BBz
B2: scFv MB36-A05 (scFv)
scFv: QVQLVQSGAEVKKPGSSVKVSCKASGGTFSSYAISWVRQAPGQGLEWMGGIIPIFGTANYAQKFQGRVTITADKSTSTAYMELSSLRSEDTAVYYCARGGRNSYYYYYMDVWGKGTTVTVSSGGGGSGGGGSGGGGSQSALTQPASVSGSPGQSITISCTGTSSDVGGYNYVSWYQQHPGKAPKLMIYEVSNRPSGVSNRFSGSKSGNTASLTISGLQAEDEADYYCSSYTSSSPVVFGGGTKLTVL
notes: Soluble scFv carried c-myc and His tags; also called CD123 (MB36-A05)
B3: scFv MB42-E02 (scFv)
scFv: QVQLVQSGAEVKKPGASVKVSCKASGYTFTSYGISWVRQAPGQGLEWMGWISAYNGNTNYAQKLQGRVTMTTDTSTSTAYMELRSLRSDDTAVYYCARGAYYDFWSGYSWFDPWGQGTLVTVSSGGGGSGGGGSGGGGSQSVLTQPPSVSVAPGQTARIPCGGNNIGSKGVHWYQQKSGQAPVMVVYDDSDRPSGIPERFSGSNSGNTATLTISRVEAGDEADYYCQVWDSSGDLVLFGGGTKLTVL
notes: Soluble scFv carried c-myc and His tags; also called CD123 (MB42-E02)
B4: scFv MB42-E12 (scFv)
scFv: QVQLVQSGAEVKKPGASVKVSCKASGYTFTSYGISWVRQAPGQGLEWMGWISAYNGNTNYAQKLQGRVTMTTDTSTSTAYMELRSLRSDDTAVYYCARGAYYDFWSSYSWFDPWGQGTLVTVSSGGGGSGGGGSGGGGSSYVLTQPPSVSVAPGKTARITCGGNNIGSKSVHWYQQKPGQAPVLVVYDDSDRPSGIPERFSGSNSGNTATLTISRVEAGDEADYYCQVWDSSSDHVVFGGGTKLTVL
notes: Soluble scFv carried c-myc and His tags; also called CD123 (MB42-E12)
B5: scFv MB31-A01 (scFv)
scFv: QIQLVQSGAEVKKPGSSVKVSCKASGGTFSSYAISWVRQAPGQGLEWMGGIIPIFGTANYAQKFQGRVTITADESTSTAYMELSSLRSEDTAVYYCARGSGELLYASYYYYYMDVWGKGTTVTVSSGGGGSGGGGSGGGGSQSALTQPASVSGSPGQSITISCTGTSSDVGGYNYVSWYQQHPGKAPELMIYDVSNRPSGVSNRFSGSKSGNTASLTISGLQAEDEADYYCSSYTSSSTPVVFGGGTKLTVL
notes: Soluble scFv carried c-myc and His tags (detection antibodies); also called CD123 (MB31-A01)
B6: scFv MB42-D03 (scFv)
scFv: QVQLVQSGAEVKKPGASVKVSCKASGYTFTSYGISWVRQAPGQGLEWMGWISAYNGNTNYAQKLQGRVTMTTDTSTSTAYMELRSLRSDDTAVYYCARGAYYDFWSSYSWFDPWGQGTLVTVSSGGGGSGGGGSGGGGSSYVLTQPPSVSVAPGKTARITCGGNSIGSKSVQWYQQKPGQAPVLVIYDDSDRPSGIPERFSGSNSGNTATLTISRVEAGDEADYYCQVWDSSSDVVFGGGTKLTVL
notes: Soluble scFv carried c-myc and His tags; also called CD123 (MB42-D03)
B7: scFv MB40-H08 (scFv)
scFv: QVQLVQSGAEVKKPGSSVKVSCKASGGTFSSYAISWVRQAPGQGLEWMGGIIPIFGTANYAQKFQGRVTITADESTSTAYMELSSLRSEDTAVYYCARNEWYSYYYYYMGVWGKGTTVTVSSGGGGSGGGGSGGGGSQSALTQPASVSGSPGQSITISCTGTSSDVGGYNYVSWYQQHPGKAPKLMIYEVSNRPSGVSNRFSGSKSGNTASLTISGLQAEDEADYYCSSYTSSSTLVVFGGGTKLTVL
notes: Soluble scFv carried c-myc and His tags; also called CD123 (MB40-H08)
B8: scFv MB44-H01 (scFv)
scFv: QVQLVQSGAEVKKPGSSVKVSCKASGGTFSSYAISWVRQAPGQGLEWMGGIIPIFGTANYAQRFQGRVTITADESTSTAYMELSSLRSEDTAVYYCARGLGTSYYYYYMDVWGKGTTVTVSSGGGGSGGGGSGGGGSQSVLTQPPSASGSPGQSVTISCTGTSSDVGGYNYVSWYQQHPGKAPKLMIYEVSNRPSGVSNRFSGSKSGNTASLTISGLQAEDEADYYCSSYTSSSTPVVFGGGTKLTVL
notes: Soluble scFv carried c-myc and His tags; also called CD123 (MB44-H01)
B9: scFv MB40-F08 (scFv)
scFv: QVQLVQSGAEVKKPGSSVKVSCKASGGTFSSYAISWVRQAPGQGLEWMGGIIPIFGTANYAQKFQGRVTITADESTSTAYMELSSLRSEDTAVYYCARGSGELLYASYYYYYMDVWGKGTTVTVSSGGGGSGGGGSGGGGSQSALTQPASVSGSPGQSITISCTGTSSDVGGYNYVSWYQQHPGKAPKLMIYEVSNRPSGVSNRFSGSKSGNTASLTISGLQAEDEADYYCSSYTSSSPLVFGTGTKVTVL
notes: Soluble scFv carried c-myc and His tags; also called CD123 (MB40-F08)
B10: scFv MB35-E02 (scFv)
scFv: QVQLVQSGAEVKKPGSSVKVSCKASGGTFSSYAISWVRQAPGQGLEWMGGIIPIFGTANYAQKFQGRVTITADESTSTAYMELSSLRSEDTAVYYCARHGGMATMLPYGAFDIWGQGTMVTVSSGGGGSGGGGSGGGGSDIRLTQSPSSLSASVGDRVTITCRASQGISSYLNWYQQKPGKAPKLLIYAASRLQSGVPSRFSGSGSGTDFTLTISSLQPEDFATYYCQQSYSTSLTFGGGTKVEIK
notes: Soluble scFv carried c-myc and His tags; also called CD123 (MB35-E02)

These binders were tested against T1, recombinant human CD123-Fc (assay: flow cytometry, CAR T cells stained with recombinant IL3R-alpha Fc-tagged, anti-Fc AF647).
Method: Half million CAR T cells were washed two times in cold AutoMACS buffer supplemented with 0.5% bovine serum albumin (Miltenyi Biotec, Bergisch Gladbach, Germany) and stained with 2.5 ug/ml CD123-Fc peptide (Novoprotein, Summit, NJ), followed by anti Fc-AF647 conjugate (Jackson ImmunoResearch, West Grove, PA). The 7-Aminoactinomycin D staining (7-AAD, BD Biosciences, San Jose, CA) was added to exclude dead cells. Non-transduced cells (UTD) were used as a negative control. Cells were washed twice with AutoMACS buffer supplemented with 0.5% bovine serum albumin, resuspended in 200 ul staining buffer and acquired by flow cytometry. Flow cytometric analysis was performed on a MACSQuant® 10 Analyzer (Miltenyi Biotec), and data plots were generated using FlowJo software (Ashland, OR).
Lentiviral vectors encoding the CD123 CAR constructs were used for CAR transduction into human primary T cells at multiplicity of infection (MOI) of 40. CAR surface expression of transduced T cells by flow cytometry using recombinant IL3R-alpha Fc-tagged, followed by staining with anti-Fc Alexa Flour 647.

binding result	Binder
binds	B1

These binders were tested against T2, recombinant human CD123 (assay: ELISA, soluble scFv on coated recombinant human CD123).
Method: After each round of incubation, the wells were washed 10 times for the first round, 20 times for the second round and 30 times for the third round with phosphate-buffered saline containing 0.05% Tween 20 (PBST) to remove nonspecifically bound phage. Antigen binding phage were eluted with 100 µl 10 µg/ml Trypsin diluted in PBS and mixed with TG1 competent cells for 1 hour at 37° C., and the phage was amplified from the infected cells and used in the next round of biopanning. After the third round of biopanning, 376 clones were randomly picked from the infected TG1 cells and each inoculated into 150 µl 2YT medium containing 100 µg/ml ampicillin and 200 mM glucose in 96-well plates by using the automated colony picking system (Molecular Devices, QPix 460) and were incubated at 37° C. overnight in a shaker at 300 rpm. Next day 10 µl of the bacterial cultures were used to inoculate 150 µl 2YT medium containing 100 µg/ml ampicillin and 50 µM isopropyl-β-d-thiogalactopyranoside in 96-well plates and the plates were further incubated at 30° C. overnight in a shaker at 300 rpm. […] The supernatants were incubated for 1 h at room temperature with recombinant human CD123 coated at 30 ng per well in 384-well plates and washed three times with PBST, (after overnight incubation at 4° C. it was blocked with 2% BSA in PBS containing 0.05% Tween 20 and washed three times with PBS containing 0.05% Tween 20.) After incubation the 3,3,′5,5′-tetramethylbenzidine (TMB) substrate was added, and solution absorbance at 450 nm (A450) measured. Clones that bound to CD123 with a signal to noise ratio of >5 were selected for further characterization.

binding result	Binder
binds	B2
binds	B3
binds	B4
binds	B5
binds	B6
binds	B7
binds	B8
binds	B9
binds	B10

Each binder was assayed against T3, CD123 on cells (MOLM-13, MOLM14, KG-1a, RS4;11-CD123) (human, UniProt P26951 19-378) (assay: flow cytometry, soluble scFv on CD123-positive MOLM-13 cells, anti-His-APC).
T3 construct: whole, on cells; also called CD123 antigen; CD123/IL-3 receptor alpha
Method: Identified binders from ELISA were tested on CD123-positive the cell line MOLM-13. The CD123-negative cell line Jeko-1 CD20KO eGFP served as negative control. For positive control staining REAL270 (alpha CD123) and REAL116 (alpha CD123) antibodies were used, respectively. Soluble scFvs were expressed as described above. The bacterial pellets were disrupted by incubation with 0.3 mL TE buffer (10 mM Tris-HCl containing 1 mM EDTA, pH 8.0 at 37° C.)/well at 37° C., 250 rpm for 18 hours. Cultures were centrifuged at 4000xg, RT for 20 minutes and the supernatant was transferred to a fresh microtiter plate.
For cell staining cell number and viability were determined at MACSQuantX. A cell suspension containing needed cell number were centrifuged at 300xg, 4° C. for 10 minutes and supernatant was discarded. Cells are resuspended by addition of PEB buffer (1xPBS + 2 mM EDTA, 0.5% BSA pH 7.4 at RT) to a concentration of 1E+06 cells/mL. One hundred thousand cells per cell line were added to each well of 96-well V-bottom plate and the plate were centrifuged at 1300xg, 4° C. for 2 minutes. The supernatant was discarded, cells were resuspended in 100 µL of supernatant from periplasmatic preparation and cells were incubated for 10 minutes on ice. Cells were washed by addition of 100 µL PEB followed by centrifugation (1300 x g, 4° C. for 2 minutes), twice. Fifty microliter of secondary (Anti-His-APC conjugated antibody) or REAL antibody (diluted 1:50 in PEB buffer) per well were added and the plate is incubated for 10 minutes in the dark at 4° C. Cells were washed by addition of 100 µL PEB followed by centrifugation (1300xg, 4° C. for 2 minutes), twice. Propidium iodide was diluted 1:100 in Fixing solution (1xPBS + 2 mM EDTA + 1% PFA + 0.3% MeOH + 3% NaAzide) and washed cells were resuspended in 50 µL of the mixture. Signals are measured at MACSQuantX. Signals were analyzed using FlowLogic software. Statistical analysis was performed with VORTEX software.

T3 sequence (P26951 19-378): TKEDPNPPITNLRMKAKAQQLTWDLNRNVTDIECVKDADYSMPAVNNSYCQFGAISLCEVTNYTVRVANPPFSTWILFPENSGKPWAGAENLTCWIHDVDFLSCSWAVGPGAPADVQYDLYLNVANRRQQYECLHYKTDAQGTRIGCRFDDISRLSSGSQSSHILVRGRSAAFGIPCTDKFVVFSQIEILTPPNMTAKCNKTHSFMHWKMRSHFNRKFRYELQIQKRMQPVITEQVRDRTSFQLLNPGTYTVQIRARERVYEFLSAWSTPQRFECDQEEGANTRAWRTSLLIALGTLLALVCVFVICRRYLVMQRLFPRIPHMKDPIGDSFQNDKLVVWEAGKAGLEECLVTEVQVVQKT

binding result	Binder
binds	B2
binds	B3
binds	B4
binds	B5
binds	B6
binds	B7
binds	B8
binds	B9
binds	B10
